Columns and labels:
mouse PVRIG-Fc protein [1] = target: T1, mouse PVRIG-Fc protein (mouse); assay: BLI (ForteBio), IgG on AHQ sensor, 100 nM PVRIG-Fc in solution, bivalent
T1 construct: not shown: Fc part
T1 chain: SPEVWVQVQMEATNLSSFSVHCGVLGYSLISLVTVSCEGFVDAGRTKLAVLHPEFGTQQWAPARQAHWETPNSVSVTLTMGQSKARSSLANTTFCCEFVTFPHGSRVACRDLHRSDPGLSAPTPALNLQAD

[2] = target: T2, cynomolgus monkey PVRIG-Fc protein (cynomolgus monkey, UniProt Q6DKI7 41-171 (human entry), limits assumed); assay: BLI (ForteBio), IgG on AHQ sensor, 100 nM PVRIG-Fc in solution, bivalent, 1:1 model
T2 construct: also called cynomolgus PVRIG-Fc protein; not shown: Fc part
T2 chain: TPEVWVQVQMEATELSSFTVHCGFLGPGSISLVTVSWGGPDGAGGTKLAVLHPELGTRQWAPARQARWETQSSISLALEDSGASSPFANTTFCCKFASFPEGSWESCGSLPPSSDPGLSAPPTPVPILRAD
Experimental: (§1) Biofilm layer optical interference technology (ForteBio) was used to determine the binding and dissociation rate constant (KD) values of the antibodies and their variants or Fab fragments obtained in Example 1 to human, cynomolgus monkey and mouse PVRIG. ForteBio affinity measurement was performed according to existing methods (Este, P et al., High throughput solution-based measurement of antibody-antigen affinity and epitope binning. Mabs, 2013.5 (2): p270-8).
(§2) The antibody-loaded sensor was continued to be loaded in a high concentration of irrelevant intact antibody for 10 min, saturating the Fc-binding site on the AHQ sensor. The saturated sensor was incubated in 100 nM PVRIG-Fc antigens to the plateau phase, and then the sensor was transferred to an analysis buffer and incubated for at least 2 minutes for measuring dissociation rate. The kinetic analysis was performed using a 1:1 binding model.

human PVRIG-his protein = target: T3, human PVRIG-his protein (human, UniProt Q6DKI7 41-171); assay: BLI (ForteBio), IgG on AHQ sensor, 100 nM PVRIG-his in solution, monovalent, 1:1 model
T3 construct: also called PVRIG-his antigen; human PVRIG protein; not shown: his tag
T3 sequence: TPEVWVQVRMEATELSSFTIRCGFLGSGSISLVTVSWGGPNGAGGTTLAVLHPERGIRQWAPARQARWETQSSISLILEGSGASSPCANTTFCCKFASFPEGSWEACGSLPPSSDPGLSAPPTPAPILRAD
Experimental: as §1
The antibody-loaded sensor was incubated in 100 nM PVRIG-his antigen to the plateau phase, and then the sensor was transferred to an analysis buffer and incubated for at least 2 minutes for measuring dissociation rate. The kinetic analysis was performed using a 1:1 binding model.

mouse PVRIG-Fc protein [3] = target: T1, mouse PVRIG-Fc protein; assay: BLI (ForteBio), IgG on AHQ sensor, 100 nM PVRIG-Fc in solution, bivalent, 1:1 model
Experimental: as §1, §2

[4] = target: T2, cynomolgus monkey PVRIG-Fc protein; assay: BLI (ForteBio), PVRIG-Fc on AHQ sensor, 100 nM Fab in solution, monovalent, 1:1 model
Experimental: as §1
(§3) The antigen-loaded sensor was incubated in 100 nM Fab solution to the plateau phase, and then the sensor was transferred to an analysis buffer and incubated for at least 2 minutes for measuring dissociation rate. The kinetic analysis was performed using a 1:1 binding model.

human PVRIG-Fc protein = target: T4, human PVRIG-Fc protein (human, UniProt Q6DKI7 41-171); assay: as above
T4 construct: also called PVRIG-Fc antigen (human); not shown: Fc part
T4 sequence: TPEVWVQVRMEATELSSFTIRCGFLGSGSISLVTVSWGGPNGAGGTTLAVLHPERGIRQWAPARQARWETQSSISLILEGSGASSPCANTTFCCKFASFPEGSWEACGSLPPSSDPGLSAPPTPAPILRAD
Experimental: as §1, §3

[5] = target: T5, cynomolgus PVRIG overexpressed on CHO cells (cynomolgus, UniProt A0A2K5WVV8 1-322); assay: flow cytometry on CHO-cynoPVRIG cells
T5 construct: whole, on cells; also called CHO-cynoPVRIG cells
T5 sequence: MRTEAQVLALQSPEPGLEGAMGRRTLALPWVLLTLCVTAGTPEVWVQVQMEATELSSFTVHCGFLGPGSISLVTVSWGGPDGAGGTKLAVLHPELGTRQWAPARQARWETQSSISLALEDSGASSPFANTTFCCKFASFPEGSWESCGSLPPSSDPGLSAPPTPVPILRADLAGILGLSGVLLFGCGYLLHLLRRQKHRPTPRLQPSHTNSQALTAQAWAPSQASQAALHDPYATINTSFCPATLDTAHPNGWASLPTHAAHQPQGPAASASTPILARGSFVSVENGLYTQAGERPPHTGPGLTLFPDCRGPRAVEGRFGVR
Experimental: (§4) The overexpressing cells were expanded and adjusted to an appropriate cell density, and added to a 96-well flow cytometry plate. After centrifugation, the cells were added with a gradiently diluted sample to be tested, and incubated at 4° C. for 30 minutes. The cells were washed twice with PBS, and added with a fluorescent secondary antibody correspondingly diluted to an appropriate concentration, then incubated at 4° C. for 30 minutes, and washed twice with PBS. Cells were resuspended with PBS, and detected on a CytoFlex flow cytometer, and the corresponding MFI was calculated. Graphpad software was used for graphical analysis to obtain EC50 values.

[6] = target: Biotin-labeled mouse PVRIG huFc protein (mouse); assay: competition ELISA: biotin mouse PVRIG huFc (2 ug/mL) binding to coated mouse CD112-his
Experimental: Specifically, mouse CD112-his protein diluted with 1× coating buffer to a final concentration of 1 μg/mL was added to the ELISA plate at 100 μL/well, covered with the film, and coated overnight at 4° C. The coating solution in the ELISA plate was discarded, and the ELISA plate was washed three times with 1×PBST and was blocked with 5% BSA/PBS at 200 μL/well for 2 hours at room temperature. During the blocking period, the samples to be tested were gradient diluted with 1% BSA/PBS to a final volume of 60 μL/well. […] The above co-incubated samples were discarded, the ELISA plate was washed three times with 1×PBST, and SA-HRP diluted with 1% BSA/PBS was added at 100 μL/well and incubated for 1 hour at room temperature.

[7] = target: T6, human PVRIG on the cell surface (human, UniProt Q6DKI7 41-326); assay: flow cytometry on CHO-huPVRIG cells
T6 construct: whole, on cells; also called CHO-huPVRIG cells; human PVRIG protein overexpressed on the surface of CHO cells
T6 sequence (looked up): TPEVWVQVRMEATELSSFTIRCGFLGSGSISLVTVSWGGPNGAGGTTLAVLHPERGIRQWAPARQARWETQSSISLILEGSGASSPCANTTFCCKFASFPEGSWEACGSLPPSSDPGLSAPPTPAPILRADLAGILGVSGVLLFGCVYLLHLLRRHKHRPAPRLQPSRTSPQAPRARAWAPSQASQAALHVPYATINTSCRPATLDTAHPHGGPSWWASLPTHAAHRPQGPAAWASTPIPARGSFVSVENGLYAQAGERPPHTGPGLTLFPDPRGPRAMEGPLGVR
Experimental: as §4

[8] = target: T7, human PVRIG protein with mouse IgG2a Fc tag (human, UniProt Q6DKI7 41-171, limits assumed); assay: flow cytometry competition: human PVRIG-mouse IgG2a Fc (1 ug/mL) binding to CHO-huCD112 cells
T7 construct: not shown: mouse IgG2a Fc tag
T7 sequence (looked up): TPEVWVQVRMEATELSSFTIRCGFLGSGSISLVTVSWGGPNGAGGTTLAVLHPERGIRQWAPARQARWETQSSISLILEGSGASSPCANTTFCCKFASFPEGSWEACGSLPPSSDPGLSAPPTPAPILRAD
Experimental: Specifically, CHO cells overexpressing human CD112 (CHO-huCD112 cells) were generated by transfection of the pCHO1.0 vector (purchased from Invitrogen) with cDNA encoding human CD112 cloned into the multiple cloning site (MCS), followed by pressure screening. The CHO-huCD112 cells were expanded and adjusted to a cell density of 2×10^6 cells/mL, added to a 96-well flow plate at 100 μL/well, and centrifuged for later use. The purified monoclonal antibody was gradiently diluted with PBS and the diluted sample was added to a 96-well flow plate at 60 μL/well. […] The above incubated samples were added at 100 μL/well to the 96-well flow plate containing CHO-huCD112 cells, incubated at 4° C. for 30 min and washed twice with PBS. APC-conjugated goat anti-mouse IgG antibody diluted 100-fold with PBS was added at 100 μL/well, incubated at 4° C. for 30 minutes and washed twice with PBS. Cells were resuspended with PBS at 100 μL/well, and detected on a CytoFlex flow cytometer, and the corresponding MFI was calculated.

B1: ADI-56204 (antibody, V domains shown)
VH: QVQLVQSGAEVKKPGASVKVSCKASGYTFTHYGIYWVRQAPGQGLEWMGHIYAYSGDTDYAQKLQGRVTMTTDTSTSTAYMELRSLRSDDTAVYYCARGSPTYEHFNWFDPWGQGTLVTVSS
VL: DIQMTQSPSSLSASVGDRVTITCQASDDISDYLNWYQQKPGKAPKLLIYDASSLHTGVPSRFSGSGSGTDFTFTISSLQPEDIATYYCQQYGNLPITFGGGTKVEIK
notes: Full-length IgG secreted by yeast and purified on Protein A
binding result (mouse PVRIG-Fc protein [1]): no binding (tested: 100 nM)
Kd [2]: 0.197 nM
Kd (human PVRIG-his protein): 0.425 nM

B2: ADI-56127 (antibody, V domains shown)
VH: QVQLVQSGAEVKKPGSSVKVSCKASGGTESVDAISWVRQAPGQGLEWMGDIIPFFDTDYAQKFQGRVTITADESTSTAYMELSSLRSEDTAVYYCAREGGTSWTHFFDLWGRGTLVTVSS
VL: not shown
notes: as for B1
Kd [2]: 0.181 nM
Kd (mouse PVRIG-Fc protein [3]): 1.66 nM
Kd (human PVRIG-his protein): 0.364 nM

B3: ADI-56249 (antibody, V domains shown)
VH: QVQLVQSGAEVKKPGSSVKVSCKASGGTFSTFAISWVRQAPGQGLEWMGDIIPIFGSNYAQKFQGRVTITADESTSTAYMELSSLRSEDTAVYYCARGPLEGKVSPFDIWGQGTMVTVSS
VL: DIVMTQSPLSLPVTPGEPASISCRSSQSLLHSTGYNYLDWYLQKPGQSPQLLIYVGSTRASGVPDRFSGSGSGTDFTLKISRVEAEDVGVYYCMQERQFPITFGGGTKVEIK
notes: as for B1
Kd [2]: 0.244 nM
Kd (mouse PVRIG-Fc protein [3]): 2.62 nM
Kd (human PVRIG-his protein): 0.872 nM

B4: ADI-56249 Fab fragment (Fab, V domains shown)
VH: QVQLVQSGAEVKKPGSSVKVSCKASGGTFSTFAISWVRQAPGQGLEWMGDIIPIFGSNYAQKFQGRVTITADESTSTAYMELSSLRSEDTAVYYCARGPLEGKVSPFDIWGQGTMVTVSS
VL: DIVMTQSPLSLPVTPGEPASISCRSSQSLLHSTGYNYLDWYLQKPGQSPQLLIYVGSTRASGVPDRFSGSGSGTDFTLKISRVEAEDVGVYYCMQERQFPITFGGGTKVEIK
notes: Fab made by papain digestion of the yeast full-length IgG, purified with Kappa Select
Kd [4]: 21.2 nM
Kd (human PVRIG-Fc protein): 0.263 nM

B5: ADI-56249-G1LALA (antibody, human IgG1, kappa, L234A L235A, V domains shown)
VH: QVQLVQSGAEVKKPGSSVKVSCKASGGTFSTFAISWVRQAPGQGLEWMGDIIPIFGSNYAQKFQGRVTITADESTSTAYMELSSLRSEDTAVYYCARGPLEGKVSPFDIWGQGTMVTVSS
VL: DIVMTQSPLSLPVTPGEPASISCRSSQSLLHSTGYNYLDWYLQKPGQSPQLLIYVGSTRASGVPDRFSGSGSGTDFTLKISRVEAEDVGVYYCMQERQFPITFGGGTKVEIKR
EC50 [5]: 0.396 nM
IC50 [6]: 3.22 nM
EC50 [7]: 1.3 nM
IC50 [8]: 2.07 nM
